According to patent US9255132B2, “Angiopoietin derived peptides” (Compugen Ltd., priority 2008, dated 2016):
Entries after “also recorded” stand apart in the source; their conditions may differ. Residues, ends and D or L forms follow the SMILES beside them.

Tests used:
Conditions in all cases: CM5 chip, 10-50 μM peptide
[1] = target: T1, human Ang2 (Homo sapiens, UniProt O15123); assay: BIACORE (SPR) binding of peptides to immobilized recombinant Ang2
T1 construct: purchased R&D Systems 623-AN-025/CF
T1 sequence (O15123 19-496): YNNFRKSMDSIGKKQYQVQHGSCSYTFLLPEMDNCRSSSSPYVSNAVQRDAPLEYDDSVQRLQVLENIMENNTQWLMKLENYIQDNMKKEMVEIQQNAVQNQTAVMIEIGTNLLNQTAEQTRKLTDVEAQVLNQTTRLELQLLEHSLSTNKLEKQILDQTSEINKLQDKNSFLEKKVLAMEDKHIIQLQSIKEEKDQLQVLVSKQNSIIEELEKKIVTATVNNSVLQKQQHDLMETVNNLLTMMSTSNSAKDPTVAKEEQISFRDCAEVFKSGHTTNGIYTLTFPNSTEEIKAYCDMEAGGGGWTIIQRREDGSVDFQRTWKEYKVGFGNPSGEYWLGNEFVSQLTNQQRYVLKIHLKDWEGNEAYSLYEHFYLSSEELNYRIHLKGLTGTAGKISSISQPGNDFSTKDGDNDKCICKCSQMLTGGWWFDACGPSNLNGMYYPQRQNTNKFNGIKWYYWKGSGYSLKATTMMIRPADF
Source text: (§1) The capability of CGEN-H2 [SEQ ID NO: 1], CGEN-H3 [SEQ ID NO: 2], CGEN-A8 [SEQ ID NO: 3], CGEN-H7 [SEQ ID NO: 4], CGEN-G4 [SEQ ID NO: 5], CGEN-G6 [SEQ ID NO: 6], CGEN-F9 [SEQ ID NO: 7], CGEN-F12 [SEQ ID NO: 8], CGEN-C6-30 [SEQ ID NO: 9], CGEN-All [SEQ ID NO: 10], and CGEN-G2 [SEQ ID NO: 11] to specifically bind to recombinant Ang1, Ang2, and Ang4 was investigated using the BIACORE technology, measuring protein-protein interaction and binding affinity (Wendler et al 2005, Anal Bioanal Chem, 381: 1056-1064). The technology is based on surface plasmon resonance (SPR), an optical phenomenon that enables detection of unlabeled interactants in real time. The SPR-based biosensors can be used in determination of active concentration, screening and characterization in terms of both affinity and kinetics.
(§2) Peptide-protein binding was analyzed using surface plasmon resonance. Analysis of the to interaction between CGEN-H2 [SEQ ID NO: 1], CGEN-H3 [SEQ ID NO: 2], CGEN-A8 [SEQ ID NO: 3], CGEN-H7 [SEQ ID NO: 4], CGEN-G4 [SEQ ID NO: 5], CGEN-G6 [SEQ ID NO: 6], CGEN-F9 [SEQ ID NO: 7], CGEN-F12 [SEQ ID NO: 8], CGEN-C6 [SEQ ID NO: 9], CGEN-A11 [SEQ ID NO: 10], and CGEN-G2 [SEQ ID NO: 11] peptides and recombinant human Ang1 carrier-free (R&D Systems, Cat#923-AN-025/CF, Lot#FHW1507031), human Ang2 carrier-free (R&D Systems, Cat#623-AN-025/CF, Lot#BNO0457121), and human Ang4 carrier-free (R&D Systems, Cat#964-AN-025/CF, Lot#ELM025121) was conducted using the BIAcore biosensor (Pharmacia Biosensor, Uppsala, Sweden). The recombinant Ang1, Ang2, and Ang4 were immobilized directly to a CM5 sensor chip. Solutions containing 10-50 μM of CGEN-H2 [SEQ ID NO: 1], CGEN-H3 [SEQ ID NO: 2], CGEN-A8 [SEQ ID NO: 3], CGEN-H7 [SEQ ID NO: 4], CGEN-G4 [SEQ ID NO: 5], CGEN-G6 [SEQ ID NO: 6], CGEN-F9 [SEQ ID NO: 7], CGEN-F12 [SEQ ID NO: 8], CGEN-C6 [SEQ ID NO: 9], CGEN-A11 [SEQ ID NO: 10], and CGEN-G2 [SEQ ID NO: 11] peptides were injected into the sample chamber of the BIACORE device at a rate of […] and the interaction was monitored using surface plasmon resonance.
(§3) Solutions containing different concentrations of CGEN-G6 [SEQ ID NO: 6], CGEN-F9 [SEQ ID NO: 7], CGEN-F12 [SEQ ID NO: 8], CGEN-A11 [SEQ ID NO: 10], and CGEN-G2 [SEQ ID NO: 11] peptides (as indicated in Table 2) were injected into the sample chamber of the BIACORE device at a rate of […] and the interaction was monitored using surface plasmon resonance. As a background, the solutions were also injected onto an empty flow cell with no immobilized ligand and the in binding levels achieved were subtracted. Data was analyzed using BIAevaluation software. The affinity constant of the interaction between CGEN-G6 [SEQ ID NO: 6], CGEN-F9 [SEQ ID NO: 7], CGEN-F12 [SEQ ID NO: 8], CGEN-C6 [SEQ ID NO: 9], CGEN-A11 [SEQ ID NO: 10], and CGEN-G2 [SEQ ID NO: 11] and Ang1, Ang2, or Ang4 was determined by direct kinetic analysis. The 1:1 Langmuir binding model was used to fit kinetic data.
(§4) Table 2 summarizes results of analysis of CGEN-G6 [SEQ ID NO: 6], CGEN-F9 [SEQ ID NO: 7], CGEN-F12 [SEQ ID NO: 8], CGEN-A11 [SEQ ID NO: 10], and CGEN-G2 [SEQ ID NO: 11] interaction with Ang1, Ang2, or Ang4. Kinetic measurements were done at the indicated concentration range, and they are presented as KD (M). CGEN-F12 [SEQ ID NO: 8] bound to Ang1 and Ang4 with high affinity. The specificity of this binding is not clear.

[2] = target: T2, human Ang4 (Homo sapiens, UniProt Q9Y264); assay: BIACORE (SPR) binding of peptides to immobilized recombinant Ang4
T2 construct: purchased R&D Systems 964-AN-025/CF
T2 sequence (Q9Y264 25-503): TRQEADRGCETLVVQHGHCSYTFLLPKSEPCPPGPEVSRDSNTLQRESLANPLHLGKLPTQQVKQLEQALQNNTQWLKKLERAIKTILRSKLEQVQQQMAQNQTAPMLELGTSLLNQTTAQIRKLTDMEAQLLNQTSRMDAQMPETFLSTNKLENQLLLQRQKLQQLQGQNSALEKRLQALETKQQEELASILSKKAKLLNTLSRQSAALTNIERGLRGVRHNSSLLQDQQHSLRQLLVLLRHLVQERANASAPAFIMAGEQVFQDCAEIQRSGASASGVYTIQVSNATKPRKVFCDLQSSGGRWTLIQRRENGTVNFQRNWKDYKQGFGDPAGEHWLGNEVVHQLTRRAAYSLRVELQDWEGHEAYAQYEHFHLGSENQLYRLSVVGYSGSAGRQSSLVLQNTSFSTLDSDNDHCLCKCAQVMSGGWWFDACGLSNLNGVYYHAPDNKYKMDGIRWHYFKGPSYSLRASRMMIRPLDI
Source text: as §1, §2, §3, §4

[3] = target: T3, recombinant human Ang1 (Homo sapiens, UniProt Q15389); assay: BIACORE (SPR) binding of peptides to immobilized recombinant Ang1
T3 construct: purchased R&D Systems 923-AN-025/CF
T3 sequence (Q15389 16-498): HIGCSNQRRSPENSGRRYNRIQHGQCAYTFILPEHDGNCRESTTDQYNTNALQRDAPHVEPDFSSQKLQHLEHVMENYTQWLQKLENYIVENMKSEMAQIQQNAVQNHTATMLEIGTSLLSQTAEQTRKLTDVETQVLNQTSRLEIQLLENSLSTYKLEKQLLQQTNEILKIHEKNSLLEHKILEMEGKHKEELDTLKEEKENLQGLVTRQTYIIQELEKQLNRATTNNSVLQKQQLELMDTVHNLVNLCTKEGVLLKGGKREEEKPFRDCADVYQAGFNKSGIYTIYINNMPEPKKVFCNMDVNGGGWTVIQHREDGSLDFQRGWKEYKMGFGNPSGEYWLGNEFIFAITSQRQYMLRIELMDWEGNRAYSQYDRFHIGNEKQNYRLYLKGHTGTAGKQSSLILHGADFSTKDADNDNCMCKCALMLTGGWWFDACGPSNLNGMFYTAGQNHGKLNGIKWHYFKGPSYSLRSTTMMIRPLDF
Source text: as §1, §2, §3, §4

| Compound | binding to immobilized Ang2 (in words) [1] | binding to immobilized Ang4 (in words) [2] | binding to immobilized Ang1 (in words) [3] |
| --- | --- | --- | --- |
| CC[C@H](C)[C@H](NC(=O)[C@H](CO)NC(=O)[C@H](C)NC(=O)[C@H](CC(C)C)NC(=O)[C@H](CCC(=O)O)NC(=O)[C@H](CCC(=O)O)NC(=O)[C@H](CCC(N)=O)NC(C)=O)C(=O)N[C@@H](CC(C)C)C(=O)N[C@@H](CO)C(=O)N[C@@H](CCCCN)C(=O)N[C@@H](CCCCN)C(=O)N[C@@H](C)C(=O)N[C@@H](CCCCN)C(=O)N[C@@H](CC(C)C)C(=O)N[C@@H](CC(C)C)C(=O)N[C@@H](CC(N)=O)C(=O)N[C@H](C(=O)N[C@@H](CC(C)C)C(=O)N[C@@H](CO)C(=O)N[C@@H](CCCNC(=N)N)C(=O)N[C@@H](CCC(N)=O)C(=O)N[C@@H](CO)C(=O)N[C@@H](C)C(=O)N[C@@H](C)C(=O)N[C@@H](CC(C)C)C(=O)N[C@H](C(=O)N[C@@H](CC(N)=O)C(=O)N[C@H](C(=O)N[C@@H](CCC(=O)O)C(=O)N[C@@H](CCCNC(=N)N)C(=O)NCC(=O)N[C@@H](CC(C)C)C(=O)N[C@@H](CCCNC(=N)N)C(=O)NCC(=O)N[C@H](C(=O)N[C@@H](CCCNC(=N)N)C(N)=O)C(C)C)[C@@H](C)CC)[C@@H](C)O)[C@@H](C)O [CGEN-F9] (Ac-QEELASILSKKAKLLNTLSRQSAALTNIERGLRGVR-NH2) | capable of binding | capable of binding | capable of binding |
| CC(=O)N[C@@H](CCC(N)=O)C(=O)N[C@@H](Cc1c[nH]cn1)C(=O)N[C@@H](CO)C(=O)N[C@@H](CC(C)C)C(=O)N[C@@H](CCCNC(=N)N)C(=O)N[C@@H](CCC(N)=O)C(=O)N[C@@H](CC(C)C)C(=O)N[C@@H](CC(C)C)C(=O)N[C@H](C(=O)N[C@@H](CC(C)C)C(=O)N[C@@H](CC(C)C)C(=O)N[C@@H](CCCNC(=N)N)C(=O)N[C@@H](Cc1c[nH]cn1)C(=O)N[C@@H](CC(C)C)C(=O)N[C@H](C(=O)N[C@@H](CCC(N)=O)C(=O)N[C@@H](CCC(=O)O)C(=O)N[C@@H](CCCNC(=N)N)C(=O)N[C@@H](C)C(=O)N[C@@H](CC(N)=O)C(=O)N[C@@H](C)C(=O)N[C@@H](CO)C(=O)N[C@@H](C)C(N)=O)C(C)C)C(C)C [CGEN-F12] (Ac-QHSLRQLLVLLRHLVQERANASA-NH2) | capable of binding | capable of binding; also recorded: high affinity | capable of binding; also recorded: high affinity |
| LMDTVHNLVNL (Ac-LMDTVHNLVNL-NH2) [CGEN-A8, amino acid residues 254-264 of angiopoietin 1] | none or low binding | none or low binding | none or low binding |
| QLQVLVSKQNSIIEEL (Ac-QLQVLVSKQNSIIEEL-NH2) [CGEN-G4, amino acid residues 215-230 of angiopoietin 2] | none or low binding | none or low binding | none or low binding |
| TDMEAQLLNQTSRMDAQM (Ac-TDMEAQLLNQTSRMDAQM-NH2) [CGEN-C6, amino acid residues 150-167 of angiopoietin 4] | not sufficiently strong | did not bind | did not bind |

Further lines, results first:

| binding to immobilized Ang2 (in words) [1] | binding to immobilized Ang4 (in words) [2] | binding to immobilized Ang1 (in words) [3] | Compound |
| --- | --- | --- | --- |
| none or low binding | none or low binding | none or low binding | LKEEKENLQGLVTRQTYIIQELEKQLNRAT (Ac-LKEEKENLQGLVTRQTYIIQELEKQLNRAT-NH2) [CGEN-H2, amino acid residues 212-241 of angiopoietin 1] |
| none or low binding | none or low binding | none or low binding | NEILKIHEKNSLLEHKILEMEGKHK (Ac-NEILKIHEKNSLLEHKILEMEGKHK-NH2) [CGEN-H7, amino acid residues 182-206 of angiopoietin 1] |
| none or low binding | none or low binding | none or low binding | TNNSVLQKQQL (Ac-TNNSVLQKQQL-NH2) [CGEN-H3, amino acid residues 242-252 of angiopoietin 1] |
